Measured values taken from patent publication US20260151504A1, “SYNTHETIC CELLS COMPRISING TNF-RELATED APOPTOSIS-INDUCING LIGAND (TRAIL) AND METHODS OF USING THE SAME” (Slingshot Biosciences, Inc., priority 2023, published 2026).

Assays:
[1] = molecular target: TRAIL receptors DR4 and/or DR5; assay: cell-based or functional assay
[2] = molecular target: streptavidin (UniProt P22629); assay: flow cytometry, antibody staining of STV smooth hydrogel microspheres, BD Quantibrite PE standard curve
[3] = molecular target: streptavidin (UniProt P22629); assay: flow cytometry, antibody staining of STV magnetic beads, BD Quantibrite PE standard curve
[4] = molecular target: streptavidin (UniProt P22629); assay: flow cytometry, antibody staining of STV porous hydrogel microspheres, BD Quantibrite PE standard curve

Sequence of streptavidin (P22629 37-163 limits assumed): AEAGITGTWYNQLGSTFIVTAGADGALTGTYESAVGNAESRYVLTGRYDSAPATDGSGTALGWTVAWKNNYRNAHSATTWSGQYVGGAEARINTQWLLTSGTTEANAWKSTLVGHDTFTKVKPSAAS

Biotinylated Fc-TRAIL: active fragment of the human TRAIL protein comprising SEQ ID NO: 2 with a mouse IgG2a-Fc Tag at the N-terminus (ACROBiosystems TRLH52591MG), biotinylated with Oyo-link single biotin (from UniProt P50591 114-281) (Fc fusion)
Early Stage Apoptotic (7-AAD-/Annexin V+), Jeko-1, 24 Hrs.; TRAIL Magnetic Beads [1]: 25.8% | Early Stage Apoptotic (7-AAD-/Annexin V+), Jeko-1, 24 Hrs.; TRAIL Porous Hydrogels [1]: 52.1% | Early Stage Apoptotic (7-AAD-/Annexin V+), Jeko-1, 24 Hrs.; TRAIL Smooth Hydrogels [1]: 44.8% | Early Stage Apoptotic (7-AAD-/Annexin V+), Jeko-1, 24 Hrs.; TRAIL encapsulated PLGA [1]: 3.08% | Early Stage Apoptotic (7-AAD-/Annexin V+), Jeko-1, 48 Hrs.; TRAIL Magnetic Beads [1]: 6.55% | Early Stage Apoptotic (7-AAD-/Annexin V+), Jeko-1, 48 Hrs.; TRAIL Porous Hydrogels [1]: 5.77% | Early Stage Apoptotic (7-AAD-/Annexin V+), Jeko-1, 48 Hrs.; TRAIL Smooth Hydrogels [1]: 11.9% | Early Stage Apoptotic (7-AAD-/Annexin V+), Jeko-1, 48 Hrs.; TRAIL encapsulated PLGA [1]: 3.07% | Early Stage Apoptotic (7-AAD-/Annexin V+), Jurkat, 24 Hrs.; TRAIL Magnetic Beads [1]: 22.3% | Early Stage Apoptotic (7-AAD-/Annexin V+), Jurkat, 24 Hrs.; TRAIL Porous Hydrogels [1]: 41.9% | Early Stage Apoptotic (7-AAD-/Annexin V+), Jurkat, 24 Hrs.; TRAIL Smooth Hydrogels [1]: 39% | Early Stage Apoptotic (7-AAD-/Annexin V+), Jurkat, 24 Hrs.; TRAIL encapsulated PLGA [1]: 7.86% | Early Stage Apoptotic (7-AAD-/Annexin V+), Jurkat, 48 Hrs.; TRAIL Magnetic Beads [1]: 13.8% | Early Stage Apoptotic (7-AAD-/Annexin V+), Jurkat, 48 Hrs.; TRAIL Porous Hydrogels [1]: 22.5% | Early Stage Apoptotic (7-AAD-/Annexin V+), Jurkat, 48 Hrs.; TRAIL Smooth Hydrogels [1]: 18.3% | Early Stage Apoptotic (7-AAD-/Annexin V+), Jurkat, 48 Hrs.; TRAIL encapsulated PLGA [1]: 3.1% | Late Stage Apoptotic (7-AAD+/Annexin V+), Jeko-1, 24 Hrs.; TRAIL Magnetic Beads [1]: 20.1% | Late Stage Apoptotic (7-AAD+/Annexin V+), Jeko-1, 24 Hrs.; TRAIL Porous Hydrogels [1]: 33.9% | Late Stage Apoptotic (7-AAD+/Annexin V+), Jeko-1, 24 Hrs.; TRAIL Smooth Hydrogels [1]: 16.9% | Late Stage Apoptotic (7-AAD+/Annexin V+), Jeko-1, 24 Hrs.; TRAIL encapsulated PLGA [1]: 5.34% | Late Stage Apoptotic (7-AAD+/Annexin V+), Jeko-1, 48 Hrs.; TRAIL Magnetic Beads [1]: 44.1% | Late Stage Apoptotic (7-AAD+/Annexin V+), Jeko-1, 48 Hrs.; TRAIL Porous Hydrogels [1]: 87.5% | Late Stage Apoptotic (7-AAD+/Annexin V+), Jeko-1, 48 Hrs.; TRAIL Smooth Hydrogels [1]: 43.1% | Late Stage Apoptotic (7-AAD+/Annexin V+), Jeko-1, 48 Hrs.; TRAIL encapsulated PLGA [1]: 13.9% | Late Stage Apoptotic (7-AAD+/Annexin V+), Jurkat, 24 Hrs.; TRAIL Magnetic Beads [1]: 14.9% | Late Stage Apoptotic (7-AAD+/Annexin V+), Jurkat, 24 Hrs.; TRAIL Porous Hydrogels [1]: 18.8% | Late Stage Apoptotic (7-AAD+/Annexin V+), Jurkat, 24 Hrs.; TRAIL Smooth Hydrogels [1]: 18% | Late Stage Apoptotic (7-AAD+/Annexin V+), Jurkat, 24 Hrs.; TRAIL encapsulated PLGA [1]: 3.17% | Late Stage Apoptotic (7-AAD+/Annexin V+), Jurkat, 48 Hrs.; TRAIL Magnetic Beads [1]: 32.9% | Late Stage Apoptotic (7-AAD+/Annexin V+), Jurkat, 48 Hrs.; TRAIL Porous Hydrogels [1]: 63.5% | Late Stage Apoptotic (7-AAD+/Annexin V+), Jurkat, 48 Hrs.; TRAIL Smooth Hydrogels [1]: 43% | Late Stage Apoptotic (7-AAD+/Annexin V+), Jurkat, 48 Hrs.; TRAIL encapsulated PLGA [1]: 5.7% | Live Cells (7-AAD-/Annexin V-), Jeko-1, 24 Hrs.; TRAIL Magnetic Beads [1]: 54% | Live Cells (7-AAD-/Annexin V-), Jeko-1, 24 Hrs.; TRAIL Porous Hydrogels [1]: 13.6% | Live Cells (7-AAD-/Annexin V-), Jeko-1, 24 Hrs.; TRAIL Smooth Hydrogels [1]: 38.2% | Live Cells (7-AAD-/Annexin V-), Jeko-1, 24 Hrs.; TRAIL encapsulated PLGA [1]: 91.5% | Live Cells (7-AAD-/Annexin V-), Jeko-1, 48 Hrs.; TRAIL Magnetic Beads [1]: 48.2% | Live Cells (7-AAD-/Annexin V-), Jeko-1, 48 Hrs.; TRAIL Porous Hydrogels [1]: 5.18% | Live Cells (7-AAD-/Annexin V-), Jeko-1, 48 Hrs.; TRAIL Smooth Hydrogels [1]: 44.8% | Live Cells (7-AAD-/Annexin V-), Jeko-1, 48 Hrs.; TRAIL encapsulated PLGA [1]: 82.4% | Live Cells (7-AAD-/Annexin V-), Jurkat, 24 Hrs.; TRAIL Magnetic Beads [1]: 62.5% | Live Cells (7-AAD-/Annexin V-), Jurkat, 24 Hrs.; TRAIL Porous Hydrogels [1]: 39.1% | Live Cells (7-AAD-/Annexin V-), Jurkat, 24 Hrs.; TRAIL Smooth Hydrogels [1]: 42.7% | Live Cells (7-AAD-/Annexin V-), Jurkat, 24 Hrs.; TRAIL encapsulated PLGA [1]: 88.6% | Live Cells (7-AAD-/Annexin V-), Jurkat, 48 Hrs.; TRAIL Magnetic Beads [1]: 49.7% | Live Cells (7-AAD-/Annexin V-), Jurkat, 48 Hrs.; TRAIL Porous Hydrogels [1]: 12% | Live Cells (7-AAD-/Annexin V-), Jurkat, 48 Hrs.; TRAIL Smooth Hydrogels [1]: 36% | Live Cells (7-AAD-/Annexin V-), Jurkat, 48 Hrs.; TRAIL encapsulated PLGA [1]: 85.6% | Necrotic (7-AAD+/Annexin V-), Jeko-1, 24 Hrs.; TRAIL Magnetic Beads [1]: 0.12% | Necrotic (7-AAD+/Annexin V-), Jeko-1, 24 Hrs.; TRAIL Porous Hydrogels [1]: 0.34% | Necrotic (7-AAD+/Annexin V-), Jeko-1, 24 Hrs.; TRAIL Smooth Hydrogels [1]: 0.1% | Necrotic (7-AAD+/Annexin V-), Jeko-1, 24 Hrs.; TRAIL encapsulated PLGA [1]: 0.088% | Necrotic (7-AAD+/Annexin V-), Jeko-1, 48 Hrs.; TRAIL Magnetic Beads [1]: 1.08% | Necrotic (7-AAD+/Annexin V-), Jeko-1, 48 Hrs.; TRAIL Smooth Hydrogels [1]: 0.17% | Necrotic (7-AAD+/Annexin V-), Jeko-1, 48 Hrs.; TRAIL encapsulated PLGA [1]: 0.62% | Necrotic (7-AAD+/Annexin V-), Jurkat, 24 Hrs.; TRAIL Magnetic Beads [1]: 0.28% | Necrotic (7-AAD+/Annexin V-), Jurkat, 24 Hrs.; TRAIL Porous Hydrogels [1]: 0.18% | Necrotic (7-AAD+/Annexin V-), Jurkat, 24 Hrs.; TRAIL Smooth Hydrogels [1]: 0.23% | Necrotic (7-AAD+/Annexin V-), Jurkat, 24 Hrs.; TRAIL encapsulated PLGA [1]: 0.36% | Necrotic (7-AAD+/Annexin V-), Jurkat, 48 Hrs.; TRAIL Magnetic Beads [1]: 3.61% | Necrotic (7-AAD+/Annexin V-), Jurkat, 48 Hrs.; TRAIL Porous Hydrogels [1]: 2.1% | Necrotic (7-AAD+/Annexin V-), Jurkat, 48 Hrs.; TRAIL Smooth Hydrogels [1]: 2.67% | Necrotic (7-AAD+/Annexin V-), Jurkat, 48 Hrs.; TRAIL encapsulated PLGA [1]: 5.61% | percentage of apoptotic cells (Annexin V-positive), Jeko-1, 24 h; TRAIL attached to magnetic beads [1]: 47.1% | percentage of apoptotic cells (Annexin V-positive), Jeko-1, 24 h; TRAIL encapsulated in PLGA microspheres [1]: 9.69% | percentage of apoptotic cells (Annexin V-positive), Jeko-1, 24 h; TRAIL on porous hydrogel microspheres [1]: 86.3% | percentage of apoptotic cells (Annexin V-positive), Jeko-1, 24 h; TRAIL on smooth hydrogel microspheres [1]: 66.3% | percentage of apoptotic cells, Jeko-1, 48 hours; TRAIL attached to magnetic beads [1]: 50.1% | percentage of apoptotic cells, Jeko-1, 48 hours; TRAIL encapsulated in PLGA microspheres [1]: 17.2% | percentage of apoptotic cells, Jeko-1, 48 hours; TRAIL on porous hydrogel microspheres [1]: 93% | percentage of apoptotic cells, Jurkat, 24 h; TRAIL attached to magnetic beads [1]: 39.5% | percentage of apoptotic cells, Jurkat, 24 h; TRAIL encapsulated in PLGA microspheres [1]: 6.45% | percentage of apoptotic cells, Jurkat, 24 h; TRAIL on porous hydrogel microspheres [1]: 78% | percentage of apoptotic cells, Jurkat, 48 h; TRAIL attached to magnetic beads [1]: 57.2% | percentage of apoptotic cells, Jurkat, 48 h; TRAIL encapsulated in PLGA microspheres [1]: 7.87% | percentage of apoptotic cells, Jurkat, 48 h; TRAIL on porous hydrogel microspheres [1]: 81.4% | percentage of early apoptotic cells, Jeko-1, 24 h; TRAIL on porous hydrogel microspheres (text value; Table 4A prints 52.1) [1]: 52.3%

soluble TRAIL protein (ligand)
Early Stage Apoptotic (7-AAD-/Annexin V+), Jeko-1, 24 Hrs.; Soluble TRAIL [1]: 35.8% | Early Stage Apoptotic (7-AAD-/Annexin V+), Jeko-1, 48 Hrs.; Soluble TRAIL [1]: 9.88% | Early Stage Apoptotic (7-AAD-/Annexin V+), Jurkat, 24 Hrs.; Soluble TRAIL [1]: 51.1% | Early Stage Apoptotic (7-AAD-/Annexin V+), Jurkat, 48 Hrs.; Soluble TRAIL [1]: 20.4% | Late Stage Apoptotic (7-AAD+/Annexin V+), Jeko-1, 24 Hrs.; Soluble TRAIL [1]: 26.4% | Late Stage Apoptotic (7-AAD+/Annexin V+), Jeko-1, 48 Hrs.; Soluble TRAIL [1]: 59.7% | Late Stage Apoptotic (7-AAD+/Annexin V+), Jurkat, 24 Hrs.; Soluble TRAIL [1]: 22.5% | Late Stage Apoptotic (7-AAD+/Annexin V+), Jurkat, 48 Hrs.; Soluble TRAIL [1]: 56.9% | Live Cells (7-AAD-/Annexin V-), Jeko-1, 24 Hrs.; Soluble TRAIL [1]: 37.8% | Live Cells (7-AAD-/Annexin V-), Jeko-1, 48 Hrs.; Soluble TRAIL [1]: 30.2% | Live Cells (7-AAD-/Annexin V-), Jurkat, 24 Hrs.; Soluble TRAIL [1]: 26.3% | Live Cells (7-AAD-/Annexin V-), Jurkat, 48 Hrs.; Soluble TRAIL [1]: 21.3% | Necrotic (7-AAD+/Annexin V-), Jeko-1, 24 Hrs.; Soluble TRAIL [1]: 0.076% | Necrotic (7-AAD+/Annexin V-), Jeko-1, 48 Hrs.; Soluble TRAIL [1]: 0.16% | Necrotic (7-AAD+/Annexin V-), Jurkat, 24 Hrs.; Soluble TRAIL [1]: 0.11% | Necrotic (7-AAD+/Annexin V-), Jurkat, 48 Hrs.; Soluble TRAIL [1]: 1.42% | percentage of apoptotic cells (Annexin V-positive), Jeko-1, 24 h; soluble TRAIL protein [1]: 60.7% | percentage of apoptotic cells, Jeko-1, 48 hours; soluble TRAIL protein [1]: 69.8% | percentage of apoptotic cells, Jurkat, 24 h; soluble TRAIL protein [1]: 72.9% | percentage of apoptotic cells, Jurkat, 48 h; soluble TRAIL protein [1]: 73%

PE-anti-streptavidin antibody (BioLegend, clone: 3A20.2)
# of STV molecules/bead (molecules/bead) [2]: 20100 | # of STV molecules/bead (molecules/bead) [3]: 120000 | # of STV molecules/bead (molecules/bead) [4]: 20100
